Results on 13 molecules are retold here after patent US20140037621A1 (JN BIOSCIENCES, published 2014).

Some results are limits rather than exact numbers.

The chains are these.
B1: HuYON007.V279-Fcµtp monomer (antibody, human IgG1, lambda)
heavy: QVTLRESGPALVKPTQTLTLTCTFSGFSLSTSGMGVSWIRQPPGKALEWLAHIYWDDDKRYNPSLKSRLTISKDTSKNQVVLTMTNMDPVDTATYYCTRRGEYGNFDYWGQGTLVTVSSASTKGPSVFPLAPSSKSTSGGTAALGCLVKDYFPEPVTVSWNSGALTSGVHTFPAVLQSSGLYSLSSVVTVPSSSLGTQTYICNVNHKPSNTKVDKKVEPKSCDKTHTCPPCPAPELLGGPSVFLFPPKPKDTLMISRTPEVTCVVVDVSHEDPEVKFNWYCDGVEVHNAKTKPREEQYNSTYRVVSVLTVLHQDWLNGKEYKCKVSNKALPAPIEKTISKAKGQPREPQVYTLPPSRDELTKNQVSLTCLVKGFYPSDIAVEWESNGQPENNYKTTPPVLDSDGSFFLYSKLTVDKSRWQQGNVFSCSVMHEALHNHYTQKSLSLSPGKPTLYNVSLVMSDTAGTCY
light: QTVVTQEPSFSVSPGGTVTLTCRSSSGAVTTSNFANWVQQTPGQAPRGLIGGTNNRAPGVPDRFSGSILGNKAALTITGAQADDESDYYCALWYSNHWVFGGGTKLTVLGQPKAAPSVTLFPPSSEELQANKATLVCLISDFYPGAVTVAWKADSSPVKAGVETTTPSKQSNNKYAASSYLSLTPEQWKSHRSYSCQVTHEGSTVEKTVAPTECS
B2: HuYON007.H285-Fcµtp multimer (antibody, human IgG1, lambda)
heavy: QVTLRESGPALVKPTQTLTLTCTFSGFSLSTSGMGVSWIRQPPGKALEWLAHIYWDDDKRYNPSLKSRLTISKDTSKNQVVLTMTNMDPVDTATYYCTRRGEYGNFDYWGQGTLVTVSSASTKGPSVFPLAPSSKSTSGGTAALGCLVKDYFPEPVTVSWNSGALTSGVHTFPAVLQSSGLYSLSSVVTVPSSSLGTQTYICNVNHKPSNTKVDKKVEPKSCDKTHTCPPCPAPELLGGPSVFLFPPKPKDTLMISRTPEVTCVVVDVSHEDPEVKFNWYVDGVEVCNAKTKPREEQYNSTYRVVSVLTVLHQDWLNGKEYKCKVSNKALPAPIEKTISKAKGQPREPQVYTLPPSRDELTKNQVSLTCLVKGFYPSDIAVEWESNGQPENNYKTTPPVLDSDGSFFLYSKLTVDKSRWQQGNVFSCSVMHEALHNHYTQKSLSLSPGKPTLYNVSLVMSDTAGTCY
light: B1 light
B3: HuYON007.A287-Fcµtp multimer (antibody, human IgG1, lambda)
heavy: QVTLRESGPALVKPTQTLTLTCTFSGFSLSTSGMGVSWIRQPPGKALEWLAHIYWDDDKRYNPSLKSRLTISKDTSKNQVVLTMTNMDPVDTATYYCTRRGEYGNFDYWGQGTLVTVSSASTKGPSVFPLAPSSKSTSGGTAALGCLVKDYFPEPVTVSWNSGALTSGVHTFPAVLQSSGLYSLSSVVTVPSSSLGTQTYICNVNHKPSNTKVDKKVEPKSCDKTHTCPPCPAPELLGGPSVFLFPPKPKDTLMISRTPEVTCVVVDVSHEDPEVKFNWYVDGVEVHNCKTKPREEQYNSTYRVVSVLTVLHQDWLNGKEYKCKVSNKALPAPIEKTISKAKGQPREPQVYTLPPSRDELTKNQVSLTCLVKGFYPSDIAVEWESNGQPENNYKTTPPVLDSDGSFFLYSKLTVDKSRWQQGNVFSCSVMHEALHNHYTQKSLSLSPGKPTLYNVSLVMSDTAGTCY
light: B1 light
B4: HuYON007.L309-Fcµtp multimer (antibody, human IgG1, lambda)
heavy: not shown
light: B1 light
B5: HuYON007.A287-Fcµtp monomer (antibody, human IgG1, lambda)
heavy: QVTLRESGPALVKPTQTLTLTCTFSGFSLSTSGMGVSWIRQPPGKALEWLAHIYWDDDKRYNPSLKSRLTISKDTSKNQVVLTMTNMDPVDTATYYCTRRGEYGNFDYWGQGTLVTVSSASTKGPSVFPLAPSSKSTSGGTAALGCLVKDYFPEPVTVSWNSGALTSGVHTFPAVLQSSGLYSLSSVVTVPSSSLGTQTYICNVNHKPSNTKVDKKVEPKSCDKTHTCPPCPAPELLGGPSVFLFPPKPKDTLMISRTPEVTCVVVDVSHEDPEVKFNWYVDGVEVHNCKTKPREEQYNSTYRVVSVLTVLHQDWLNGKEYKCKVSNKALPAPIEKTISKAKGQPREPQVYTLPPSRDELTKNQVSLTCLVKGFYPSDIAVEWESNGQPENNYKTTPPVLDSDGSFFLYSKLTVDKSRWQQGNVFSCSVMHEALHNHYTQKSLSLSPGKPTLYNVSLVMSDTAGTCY
light: B1 light
B6: HuYON007.L309-Fcµtp monomer (antibody, human IgG1, lambda)
heavy: not shown
light: B1 light
B7: HuYON007.H285-Fcµtp monomer (antibody, human IgG1, lambda)
heavy: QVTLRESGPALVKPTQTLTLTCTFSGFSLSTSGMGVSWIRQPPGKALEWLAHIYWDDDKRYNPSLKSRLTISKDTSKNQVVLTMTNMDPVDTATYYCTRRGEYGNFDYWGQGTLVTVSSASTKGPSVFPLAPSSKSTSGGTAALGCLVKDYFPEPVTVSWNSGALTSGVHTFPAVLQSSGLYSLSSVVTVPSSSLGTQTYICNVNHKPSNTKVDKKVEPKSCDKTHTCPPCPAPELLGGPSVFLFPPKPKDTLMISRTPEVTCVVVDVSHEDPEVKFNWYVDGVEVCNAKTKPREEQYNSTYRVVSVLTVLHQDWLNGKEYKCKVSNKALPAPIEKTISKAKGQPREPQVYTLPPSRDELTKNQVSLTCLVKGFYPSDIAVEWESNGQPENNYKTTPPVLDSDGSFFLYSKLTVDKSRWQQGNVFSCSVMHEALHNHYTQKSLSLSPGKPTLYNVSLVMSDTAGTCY
light: B1 light
B8: HuYON007.V279-Fcµtp multimer (antibody, human IgG1, lambda)
heavy: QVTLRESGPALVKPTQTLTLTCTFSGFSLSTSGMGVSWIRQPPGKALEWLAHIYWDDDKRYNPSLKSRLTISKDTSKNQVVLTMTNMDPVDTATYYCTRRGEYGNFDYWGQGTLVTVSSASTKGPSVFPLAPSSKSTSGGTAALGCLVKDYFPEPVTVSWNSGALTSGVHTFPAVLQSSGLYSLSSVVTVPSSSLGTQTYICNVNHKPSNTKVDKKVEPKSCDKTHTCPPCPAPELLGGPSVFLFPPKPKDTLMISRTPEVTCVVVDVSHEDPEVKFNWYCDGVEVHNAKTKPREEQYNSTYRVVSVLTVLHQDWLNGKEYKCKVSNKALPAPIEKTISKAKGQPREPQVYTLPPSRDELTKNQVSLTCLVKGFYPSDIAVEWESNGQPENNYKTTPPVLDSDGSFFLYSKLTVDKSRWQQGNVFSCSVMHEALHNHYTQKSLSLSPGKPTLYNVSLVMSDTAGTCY
light: B1 light
B9: ChSan11 IgG1/kappa antibody (mouse-human chimeric anti-human CD30) (antibody)
heavy: not shown
VL: DIVLTQSPASLAVSLGQRATISCRASESVEYYGTGLMQWYQQKPGQPPKLLIYSASNVESGVPARFTGSGSGTDFSLNIHPVEEDDIAMYFCQQSRKVPWTFGGGTKLEIKR
B10: ChSan11.A287-Fcµtp multimer (antibody, human IgG1)
heavy: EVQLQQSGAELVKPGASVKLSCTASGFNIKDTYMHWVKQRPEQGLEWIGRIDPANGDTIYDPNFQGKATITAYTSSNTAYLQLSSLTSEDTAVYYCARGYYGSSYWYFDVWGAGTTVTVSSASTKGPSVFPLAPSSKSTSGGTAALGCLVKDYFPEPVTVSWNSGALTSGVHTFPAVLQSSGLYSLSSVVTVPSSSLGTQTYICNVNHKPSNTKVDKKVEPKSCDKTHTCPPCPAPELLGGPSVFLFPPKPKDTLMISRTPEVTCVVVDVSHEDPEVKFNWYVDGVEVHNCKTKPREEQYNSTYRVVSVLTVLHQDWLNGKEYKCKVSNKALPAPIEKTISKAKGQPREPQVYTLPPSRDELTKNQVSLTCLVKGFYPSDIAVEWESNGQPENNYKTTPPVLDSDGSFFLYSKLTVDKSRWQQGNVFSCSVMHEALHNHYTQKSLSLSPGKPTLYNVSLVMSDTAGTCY
VL: B9 VL
B11: ChSan11.V279-Fcµtp multimer (antibody, human IgG1)
heavy: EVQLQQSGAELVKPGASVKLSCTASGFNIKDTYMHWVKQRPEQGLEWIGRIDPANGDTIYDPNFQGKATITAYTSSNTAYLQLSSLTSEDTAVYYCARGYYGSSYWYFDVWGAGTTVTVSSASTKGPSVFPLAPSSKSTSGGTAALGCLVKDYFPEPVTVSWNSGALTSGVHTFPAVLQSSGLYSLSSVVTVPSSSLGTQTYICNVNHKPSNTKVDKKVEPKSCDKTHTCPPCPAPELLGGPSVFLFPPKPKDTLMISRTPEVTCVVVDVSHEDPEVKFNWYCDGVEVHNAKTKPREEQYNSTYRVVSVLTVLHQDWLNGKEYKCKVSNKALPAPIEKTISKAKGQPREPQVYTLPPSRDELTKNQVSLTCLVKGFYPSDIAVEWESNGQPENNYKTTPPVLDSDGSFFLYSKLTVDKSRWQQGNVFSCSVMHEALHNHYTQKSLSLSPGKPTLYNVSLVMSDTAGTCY
VL: B9 VL
B12: ChSan11.L309-Fcµtp multimer (antibody, human IgG1)
heavy: not shown
VL: B9 VL
B13: ChSan11.H285-Fcµtp multimer (antibody, human IgG1)
heavy: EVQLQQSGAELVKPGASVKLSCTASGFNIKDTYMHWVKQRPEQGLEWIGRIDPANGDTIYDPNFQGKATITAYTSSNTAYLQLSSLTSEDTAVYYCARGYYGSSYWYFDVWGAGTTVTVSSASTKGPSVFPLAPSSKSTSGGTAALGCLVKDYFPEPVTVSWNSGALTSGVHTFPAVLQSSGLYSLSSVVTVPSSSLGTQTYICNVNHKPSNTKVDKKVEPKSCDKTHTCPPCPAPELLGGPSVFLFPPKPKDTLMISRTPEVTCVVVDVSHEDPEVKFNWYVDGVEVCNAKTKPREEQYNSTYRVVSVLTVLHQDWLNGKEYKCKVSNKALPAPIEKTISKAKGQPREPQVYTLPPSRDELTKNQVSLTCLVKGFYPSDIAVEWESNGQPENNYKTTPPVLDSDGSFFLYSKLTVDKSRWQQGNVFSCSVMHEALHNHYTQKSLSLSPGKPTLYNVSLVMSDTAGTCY
VL: B9 VL

In one experiment the target is death receptor 4 (DR4) on the cell surface (Ramos, Colo-205, RPMI 8226 cells) (human, UniProt O00220 24-468). Kind of experiment: cell-based or functional assay.
Take B1: the “cell viability of Ramos cells at 100 ng/ml of antibody (alamarBlue)” value (“cell viability of Ramos cells” below) was 80%.

Turning to B2, the “cell killing of Ramos cells at 100 ng/ml of antibody (alamarBlue)” value (from here on “cell killing of Ramos cells”) is approximately 100% and the “viability of Colo-205 cells at 100 ng/ml of antibody (alamarBlue)” value (“viability of Colo-205 cells” for short) is less than 35%.

As to B3, the “cell killing of Ramos cells” value was approximately 100% and the “viability of Colo-205 cells” value was less than 35%.

Consider B4, for which the “cell killing of Ramos cells” value was approximately 100% and the “viability of Colo-205 cells” value is less than 35%.

B5: the “cell viability of Ramos cells” value stood at 83%.

As for B6, the “cell viability of Ramos cells” value is 92%.

Take B7: the “cell viability of Ramos cells” value is 91%.

For B8, the “cell killing of Ramos cells” value is approximately 100% and the “viability of Colo-205 cells” value is less than 35%.

A further experiment addresses T1, CD30 on the surface of Karpas 299 cells (human, UniProt P28908 19-595).
T1 sequence (looked up): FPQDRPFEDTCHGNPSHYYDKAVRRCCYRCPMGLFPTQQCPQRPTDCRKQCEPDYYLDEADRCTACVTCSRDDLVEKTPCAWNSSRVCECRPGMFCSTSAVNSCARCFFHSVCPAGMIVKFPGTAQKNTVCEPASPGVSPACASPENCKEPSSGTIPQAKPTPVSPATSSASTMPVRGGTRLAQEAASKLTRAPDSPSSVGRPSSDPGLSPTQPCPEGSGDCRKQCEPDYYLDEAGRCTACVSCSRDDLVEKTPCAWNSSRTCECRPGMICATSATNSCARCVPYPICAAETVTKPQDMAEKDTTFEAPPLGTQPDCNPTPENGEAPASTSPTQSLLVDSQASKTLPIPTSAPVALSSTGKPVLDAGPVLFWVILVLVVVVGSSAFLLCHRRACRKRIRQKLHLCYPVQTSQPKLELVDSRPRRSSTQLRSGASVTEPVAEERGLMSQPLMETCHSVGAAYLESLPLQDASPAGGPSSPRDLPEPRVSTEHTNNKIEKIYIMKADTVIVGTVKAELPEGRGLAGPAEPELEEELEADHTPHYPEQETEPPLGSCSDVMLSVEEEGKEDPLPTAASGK
Kind of experiment: cell-based or functional assay.
Consider B9, for which the “growth level of Karpas 299 cells (percent cell growth, WST-8, 2 µg/ml antibody, 5 days)” value turned out to be 106%.

Consider B10, for which the “growth level of Karpas 299 cells (percent cell growth, WST-8, 2 µg/ml antibody, 5 days)” value is 43%.

With B11, the “growth level of Karpas 299 cells (percent cell growth, WST-8, 2 µg/ml antibody, 5 days)” value was determined as 41%.

With B12, the “growth level of Karpas 299 cells (percent cell growth, WST-8, 2 µg/ml antibody, 5 days)” value is 38%.

Consider B13, for which the “growth level of Karpas 299 cells (percent cell growth, WST-8, 2 µg/ml antibody, 5 days)” value came to 39%.
